Assay [1] concerns the target T1, human pregnane X receptor ligand binding domain (residues 130-434) (human, UniProt O75469 130-434).
T1 construct: In the crystallised construct this domain and the SRC-1 peptide are one polypeptide: His6 - PXR 130-434 - SGGSGG linker - SRC-1 678-710; Written here as a molecule of its own for the pair PXR LBD / SRC-1; also called PXR LBD; WT PXR LBD; source: E. coli BL21(DE3), purified (HisTrap, HiTrap SP flow-through, Superdex 200 SEC)
T1 sequence (looked up): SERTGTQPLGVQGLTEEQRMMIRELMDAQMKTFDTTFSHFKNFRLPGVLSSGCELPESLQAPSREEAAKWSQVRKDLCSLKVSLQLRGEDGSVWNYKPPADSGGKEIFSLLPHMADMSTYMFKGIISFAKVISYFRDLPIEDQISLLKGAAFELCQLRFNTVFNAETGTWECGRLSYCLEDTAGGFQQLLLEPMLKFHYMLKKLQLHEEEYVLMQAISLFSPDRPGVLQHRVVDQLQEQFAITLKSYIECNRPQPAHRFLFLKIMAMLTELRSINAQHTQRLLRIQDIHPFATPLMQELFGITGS
The assay can be described thus: crystal structure; PXR LBD tethered to the SRC-1 peptide on one chain, co-crystallised with an antagonist (SJPYT-310, SJPYT-278, SJPYT-312 or SJPYT-331; 2:1 ligand to protein); 50 mM Bis-Tris pH 6-7, 10-20% MPD, 20 °C. Particulars: both partners purified.

In assay [2] the target is T2, L428V mutant of human pregnane X receptor ligand binding domain (residues 130-434) (human, UniProt O75469 130-434, L428V).
T2 construct: As m1, one polypeptide with the SRC-1 peptide: His6 - PXR 130-434 (L428V) - SGGSGG linker - SRC-1 678-710; also called PXR^L428V LBD; source: E. coli BL21(DE3), purified (HisTrap, HiTrap SP flow-through, Superdex 200 SEC)
T2 sequence (looked up): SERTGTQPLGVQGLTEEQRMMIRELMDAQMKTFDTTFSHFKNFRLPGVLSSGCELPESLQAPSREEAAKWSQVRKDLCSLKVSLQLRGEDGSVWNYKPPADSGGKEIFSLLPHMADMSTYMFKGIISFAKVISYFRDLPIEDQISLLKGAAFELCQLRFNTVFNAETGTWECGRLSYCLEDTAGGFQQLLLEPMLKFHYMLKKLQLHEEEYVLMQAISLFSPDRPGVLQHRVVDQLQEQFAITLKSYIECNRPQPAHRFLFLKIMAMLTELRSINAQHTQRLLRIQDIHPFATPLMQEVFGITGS
The assay can be described thus: crystal structure; PXR L428V LBD tethered to the SRC-1 peptide on one chain, apo and with the antagonist SJPYT-331; 50 mM Bis-Tris pH 6-7, 10-20% MPD, 20 °C. Particulars: both partners purified.

B1: SRC-1 peptide (residues 678-710), 33 amino acids (peptide, UniProt Q15788 678-710, looked up)
chain: SSHSSLTERHKILHRLLQEGSPSDITTLSVEPD
notes: Not a free peptide: tethered to the C-terminus of PXR LBD (m1 or m3) through an SGGSGG linker on one chain; also called tethered SRC-1 peptide
Regarding B1, the binding result in assay [1] and in assay [2] was “binds” each time.

For the origin of these results see article PMC11094003, “Chemical manipulation of an activation/inhibition switch in the nuclear receptor PXR” (Nature Communications, 2024).
